Test results published in paper PMC7549315.

Legend:
SAF-A^RGG1-7Δ–GFP = SAF-A^RGG1-7Δ–GFP (UniProt Q00839); assay: co-IP
SAF-A^CtermΔ–GFP = assay: co-IP
Sequence of SAF-A^CtermΔ–GFP (Q00839 2-825, stated change not applied): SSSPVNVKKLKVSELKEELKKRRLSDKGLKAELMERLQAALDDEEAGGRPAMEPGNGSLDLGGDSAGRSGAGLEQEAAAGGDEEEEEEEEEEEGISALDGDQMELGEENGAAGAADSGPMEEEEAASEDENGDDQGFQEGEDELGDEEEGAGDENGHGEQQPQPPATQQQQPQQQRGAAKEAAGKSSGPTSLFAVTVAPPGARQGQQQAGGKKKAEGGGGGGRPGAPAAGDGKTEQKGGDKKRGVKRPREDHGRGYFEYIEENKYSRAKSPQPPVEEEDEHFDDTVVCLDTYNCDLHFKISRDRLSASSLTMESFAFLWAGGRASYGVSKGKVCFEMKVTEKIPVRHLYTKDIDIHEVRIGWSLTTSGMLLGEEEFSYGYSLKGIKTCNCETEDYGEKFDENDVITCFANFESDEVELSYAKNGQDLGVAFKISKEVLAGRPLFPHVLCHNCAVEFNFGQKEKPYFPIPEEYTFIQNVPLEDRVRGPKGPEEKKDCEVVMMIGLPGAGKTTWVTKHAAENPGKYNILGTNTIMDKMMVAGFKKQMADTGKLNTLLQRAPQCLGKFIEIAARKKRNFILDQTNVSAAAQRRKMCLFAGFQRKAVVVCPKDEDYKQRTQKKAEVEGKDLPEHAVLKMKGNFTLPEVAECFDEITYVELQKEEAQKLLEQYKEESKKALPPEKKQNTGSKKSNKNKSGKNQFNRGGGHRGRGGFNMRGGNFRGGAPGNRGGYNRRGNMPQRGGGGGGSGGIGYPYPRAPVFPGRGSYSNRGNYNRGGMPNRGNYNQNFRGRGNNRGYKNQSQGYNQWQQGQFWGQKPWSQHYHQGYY

Sequence of SAF-A^RGG1-7Δ–GFP (Q00839 whole entry, stated change not applied): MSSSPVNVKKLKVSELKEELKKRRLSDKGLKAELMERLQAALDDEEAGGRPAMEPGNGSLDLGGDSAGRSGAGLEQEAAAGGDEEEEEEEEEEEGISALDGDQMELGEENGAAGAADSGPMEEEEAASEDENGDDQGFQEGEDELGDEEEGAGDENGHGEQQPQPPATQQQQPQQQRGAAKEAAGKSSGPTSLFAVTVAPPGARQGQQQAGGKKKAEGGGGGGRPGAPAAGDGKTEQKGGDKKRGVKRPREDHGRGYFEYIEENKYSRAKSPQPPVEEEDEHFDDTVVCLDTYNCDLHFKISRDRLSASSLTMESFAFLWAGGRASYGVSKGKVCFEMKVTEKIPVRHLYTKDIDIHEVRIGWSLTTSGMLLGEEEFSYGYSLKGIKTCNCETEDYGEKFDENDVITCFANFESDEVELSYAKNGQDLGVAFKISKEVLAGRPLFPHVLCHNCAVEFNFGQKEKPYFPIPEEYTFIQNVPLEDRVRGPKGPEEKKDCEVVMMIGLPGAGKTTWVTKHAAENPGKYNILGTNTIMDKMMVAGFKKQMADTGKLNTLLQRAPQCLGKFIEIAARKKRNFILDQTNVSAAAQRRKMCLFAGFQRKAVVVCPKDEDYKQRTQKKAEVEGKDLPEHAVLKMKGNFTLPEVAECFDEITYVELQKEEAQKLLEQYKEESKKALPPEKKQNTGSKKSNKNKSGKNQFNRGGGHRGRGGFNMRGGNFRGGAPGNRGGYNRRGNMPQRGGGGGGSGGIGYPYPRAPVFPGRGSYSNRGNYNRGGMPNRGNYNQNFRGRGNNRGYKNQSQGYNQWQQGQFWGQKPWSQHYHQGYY

fold reduction in histone H3 interaction relative to SAF-A^wt–GFP (SAF-A^RGG1-7Δ–GFP): > 7 fold | fold reduction in histone H3 interaction relative to SAF-A^wt–GFP (SAF-A^CtermΔ–GFP): > 7 fold
Substance: histone H3 (from UniProt P68431 1-136) (natural protein)
